In patent US20030148956A1 (PROCTER AND GAMBLE, published 2003):
Ends that are not written are not given here.

Molecular target: T1, CRF2R
T1 sequence (Q13324 whole entry, species assumed, looked up): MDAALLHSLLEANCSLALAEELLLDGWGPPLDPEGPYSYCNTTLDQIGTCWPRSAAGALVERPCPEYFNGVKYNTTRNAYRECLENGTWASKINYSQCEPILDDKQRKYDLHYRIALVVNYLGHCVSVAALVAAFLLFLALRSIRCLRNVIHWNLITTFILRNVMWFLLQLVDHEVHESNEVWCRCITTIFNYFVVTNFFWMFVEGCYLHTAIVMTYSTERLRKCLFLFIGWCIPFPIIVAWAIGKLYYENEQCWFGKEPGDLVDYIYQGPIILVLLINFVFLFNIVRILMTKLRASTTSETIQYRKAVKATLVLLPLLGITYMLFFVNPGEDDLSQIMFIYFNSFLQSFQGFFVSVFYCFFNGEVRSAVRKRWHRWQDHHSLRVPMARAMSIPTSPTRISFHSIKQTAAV
Test: cell-based or functional assay

Binder | CRF2R EC50 [nM] | CRF2R Emax [%]
ZGPPISIDLSIGLLRKMIEIEKQEKEKQQAANNRLLLDTI (C-terminal amide) [SEQ ID NO 25] | 81 | 81.9
ZGPPISIDLPIPLLRKMIEIEKQEKEKQQAANNRLLLDTI (C-terminal amide) [SEQ ID NO 26] | 91.8 | 86
ZGPPISIDLPQYLLRKMIEIEKQEKEKQQAANNRLLLDTI (C-terminal amide) [SEQ ID NO 27] | 10.7 | 96
ZGPPISIDLPIDLLRKMIEIEKQEKEKQQAANNRLLLDTI (C-terminal amide) [SEQ ID NO 28] | 100 | 15
ZGPPISIDLPIFLLRKMIEIEKQEKEKQQAANNRLLLDTI (C-terminal amide) [SEQ ID NO 29] | 16 | 100
ZGPPISIDLSLELLRKMIEIEKQEKEKQQAANNALLLATI (C-terminal amide) [SEQ ID NO 30] | 18.7 | 85.5
ZGPPISIDLPIVLLRKMIEIEKQEKEKQQAANNRLLLDTI (C-terminal amide) [SEQ ID NO 31] | 30.8 | 100
ZGPPISIDLPAYLLRKMIEIEKQEKEKQQAANNRLLLDTI (C-terminal amide) [SEQ ID NO 32] | 20.2 | 98
ZGPPISIDLPIKLLRKMIEIEKQEKEKQQAANNRLLLDTI (C-terminal amide) [SEQ ID NO 34] | > 100 | 45
ZGPPISIDLPILLLRKMIEIEKQEKEKQQAANNRLLLDTI (C-terminal amide) [SEQ ID NO 35] | 15.6 | 88
ZGPPISIDLPIILLRKMIEIEKQEKEKQQAANNRLLLDTI (C-terminal amide) [SEQ ID NO 36] | 14.8 | 73
ZGPPISIDLPINLLRKMIEIEKQEKEKQQAANNRLLLDTI (C-terminal amide) [SEQ ID NO 37] | > 100 | 51
ZGPPISIDLPIRLLRKMIEIEKQEKEKQQAANNRLLLDTI (C-terminal amide) [SEQ ID NO 38] | 71.9 | 91
ZGPPISIDLPVYLLRKMIEIEKQEKEKQQAANNRLLLDTI (C-terminal amide) [SEQ ID NO 39] | 58.2 | 94
ZGPPISIDLPYYLLRKMIEIEKQEKEKQQAANNRLLLDTI (C-terminal amide) [SEQ ID NO 40] | 6.95 | 93
ZGPPISIDLPTWLLRKMIEIEKQEKEKQQAANNRLLLDTI (C-terminal amide) [SEQ ID NO 41] | 18.3 | 100
ZGPPISIDLPTTLLRKMIEIEKQEKEKQQAANNRLLLDTI (C-terminal amide) [SEQ ID NO 42] | > 100 | 88
ZGPPISIDLPTSLLRKMIEIEKQEKEKQQAANNRLLLDTI (C-terminal amide) [SEQ ID NO 43] | > 100 | 67
ZGPPISIDLPTFLLRKMIEIEKQEKEKQQAANNRLLLDTI (C-terminal amide) [SEQ ID NO 44] | 19.1 | 87
ZGPPISIDLPTKLLRKMIEIEKQEKEKQQAANNRLLLDTI (C-terminal amide) [SEQ ID NO 45] | > 100 | 44

Binder | CRF2R EC50 [nM] | CRF2R Emax [%]
ZGPPISIDLPTVLLRKMIEIEKQEKEKQQAANNRLLLDTI (C-terminal amide) [SEQ ID NO 46] | > 100 | 100
ZGPPISIDLPIALLRKMIEIEKQEKEKQQAANNRLLLDTI (C-terminal amide) [SEQ ID NO 47] | > 100 | 66
ZGPPISIDLPEYLLRKMIEIEKQEKEKQQAANNRLLLDTI (C-terminal amide) [SEQ ID NO 48] | 100 | 14
ZGPPISIDLPTDLLRKMIEIEKQEKEKQQAANNRLLLDTI (C-terminal amide) [SEQ ID NO 49] | > 100 | 37
ZGPPISIDLPTILLRKMIEIEKQEKEKQQAANNRLLLDTI (C-terminal amide) [SEQ ID NO 50] | 19 | 94
ZGPPISIDLPTLLLRKMIEIEKQEKEKQQAANNRLLLDTI (C-terminal amide) [SEQ ID NO 51] | 20.6 | 100
ZGPPISIDLPTPLLRKMIEIEKQEKEKQQAANNRLLLDTI (C-terminal amide) [SEQ ID NO 52] | > 100 | 10
ZGPPISIDLPISLLRKMIEIEKQEKEKQQAANNRLLLDTI (C-terminal amide) [SEQ ID NO 53] | > 100 | 95
ZGPPISIDLPDYLLRKMIEIEKQEKEKQQAANNRLLLDTI (C-terminal amide) [SEQ ID NO 54] | 100 | 11
ZGPPISIDLPWYLLRKMIEIEKQEKEKQQAANNRLLLDTI (C-terminal amide) [SEQ ID NO 55] | 7.95 | 95
ZGPPISIDLPSYLLRKMIEIEKQEKEKQQAANNRLLLDTI (C-terminal amide) [SEQ ID NO 56] | 50.4 | 87
ZGPPISIDLPPYLLRKMIEIEKQEKEKQQAANNRLLLDTI (C-terminal amide) [SEQ ID NO 57] | > 100 | 46
ZGPPISIDLPKYLLRKMIEIEKQEKEKQQAANNRLLLDTI (C-terminal amide) [SEQ ID NO 58] | 71.6 | 100
ZGPPISIDLPTNLLRKMIEIEKQEKEKQQAANNRLLLDTI (C-terminal amide) [SEQ ID NO 59] | > 100 | 27
Ac-IVLSLDVPIGLLQILLEQEKARAAREQATTNARILARV-NH2 [SEQ ID NO 3] | 12.1 | –
SQEPPISLDLPLELLREVLEMTKADQLAQQAHSNRKLLDIA-NH2 [SEQ ID NO 89] | 100 | 12.7
Ac-IVLSLDVPIGLLQILLEQEKARAAREQATTNARILARV-NH2 (not fully specified) [SEQ ID NO 107] | 12.1 | –
IVLSLDVPIGLLQILLEQEKARAAREQATTNARILARV-NH2 [SEQ ID NO 121] | 5.67 | –
ZGPPISIDLPQVLLRKMIEIEKQEKEKQQAANNRLLLDTI (C-terminal amide) [SEQ ID NO 197] | 48.1 | 94
ZGPPISIDLPQQLLRKMIEIEKQEKEKQQAANNRLLLDTI (C-terminal amide) [SEQ ID NO 198] | 29.9 | 100

Molecular target: CRF1R
Test: cell-based or functional assay

Binder | CRF1R EC50 [nM] | CRF1R Emax [%]
ZGPPISIDLSIGLLRKMIEIEKQEKEKQQAANNRLLLDTI (C-terminal amide) [SEQ ID NO 25] | 677 | 92.3
ZGPPISIDLPIPLLRKMIEIEKQEKEKQQAANNRLLLDTI (C-terminal amide) [SEQ ID NO 26] | > 1000 | 16
ZGPPISIDLPQYLLRKMIEIEKQEKEKQQAANNRLLLDTI (C-terminal amide) [SEQ ID NO 27] | 325 | 100
ZGPPISIDLPIDLLRKMIEIEKQEKEKQQAANNRLLLDTI (C-terminal amide) [SEQ ID NO 28] | > 1000 | 2
ZGPPISIDLPIFLLRKMIEIEKQEKEKQQAANNRLLLDTI (C-terminal amide) [SEQ ID NO 29] | > 1000 | 79
ZGPPISIDLSLELLRKMIEIEKQEKEKQQAANNALLLATI (C-terminal amide) [SEQ ID NO 30] | 100 | 100
ZGPPISIDLPIVLLRKMIEIEKQEKEKQQAANNRLLLDTI (C-terminal amide) [SEQ ID NO 31] | > 1000 | 18
ZGPPISIDLPAYLLRKMIEIEKQEKEKQQAANNRLLLDTI (C-terminal amide) [SEQ ID NO 32] | 606 | 94
ZGPPISIDLPIKLLRKMIEIEKQEKEKQQAANNRLLLDTI (C-terminal amide) [SEQ ID NO 34] | > 1000 | 11
ZGPPISIDLPILLLRKMIEIEKQEKEKQQAANNRLLLDTI (C-terminal amide) [SEQ ID NO 35] | > 1000 | 74
ZGPPISIDLPIILLRKMIEIEKQEKEKQQAANNRLLLDTI (C-terminal amide) [SEQ ID NO 36] | > 1000 | 33
ZGPPISIDLPINLLRKMIEIEKQEKEKQQAANNRLLLDTI (C-terminal amide) [SEQ ID NO 37] | > 1000 | 5
ZGPPISIDLPIRLLRKMIEIEKQEKEKQQAANNRLLLDTI (C-terminal amide) [SEQ ID NO 38] | > 1000 | 11
ZGPPISIDLPVYLLRKMIEIEKQEKEKQQAANNRLLLDTI (C-terminal amide) [SEQ ID NO 39] | 1000 | 63
ZGPPISIDLPYYLLRKMIEIEKQEKEKQQAANNRLLLDTI (C-terminal amide) [SEQ ID NO 40] | 102 | 99
ZGPPISIDLPTWLLRKMIEIEKQEKEKQQAANNRLLLDTI (C-terminal amide) [SEQ ID NO 41] | > 1000 | 43
ZGPPISIDLPTTLLRKMIEIEKQEKEKQQAANNRLLLDTI (C-terminal amide) [SEQ ID NO 42] | > 1000 | 10

Binder | CRF1R EC50 [nM] | CRF1R Emax [%]
ZGPPISIDLPTSLLRKMIEIEKQEKEKQQAANNRLLLDTI (C-terminal amide) [SEQ ID NO 43] | > 1000 | 10
ZGPPISIDLPTFLLRKMIEIEKQEKEKQQAANNRLLLDTI (C-terminal amide) [SEQ ID NO 44] | 944 | 64
ZGPPISIDLPTKLLRKMIEIEKQEKEKQQAANNRLLLDTI (C-terminal amide) [SEQ ID NO 45] | > 1000 | 7
ZGPPISIDLPTVLLRKMIEIEKQEKEKQQAANNRLLLDTI (C-terminal amide) [SEQ ID NO 46] | > 1000 | 17
ZGPPISIDLPIALLRKMIEIEKQEKEKQQAANNRLLLDTI (C-terminal amide) [SEQ ID NO 47] | 1000 | 12
ZGPPISIDLPEYLLRKMIEIEKQEKEKQQAANNRLLLDTI (C-terminal amide) [SEQ ID NO 48] | 1000 | 21
ZGPPISIDLPTDLLRKMIEIEKQEKEKQQAANNRLLLDTI (C-terminal amide) [SEQ ID NO 49] | > 1000 | 15
ZGPPISIDLPTILLRKMIEIEKQEKEKQQAANNRLLLDTI (C-terminal amide) [SEQ ID NO 50] | > 1000 | 42
ZGPPISIDLPTLLLRKMIEIEKQEKEKQQAANNRLLLDTI (C-terminal amide) [SEQ ID NO 51] | > 1000 | 48
ZGPPISIDLPTPLLRKMIEIEKQEKEKQQAANNRLLLDTI (C-terminal amide) [SEQ ID NO 52] | > 1000 | 13
ZGPPISIDLPISLLRKMIEIEKQEKEKQQAANNRLLLDTI (C-terminal amide) [SEQ ID NO 53] | > 1000 | 19
ZGPPISIDLPDYLLRKMIEIEKQEKEKQQAANNRLLLDTI (C-terminal amide) [SEQ ID NO 54] | 1000 | 10
ZGPPISIDLPWYLLRKMIEIEKQEKEKQQAANNRLLLDTI (C-terminal amide) [SEQ ID NO 55] | 11.6 | 92
ZGPPISIDLPSYLLRKMIEIEKQEKEKQQAANNRLLLDTI (C-terminal amide) [SEQ ID NO 56] | > 100 | 14
ZGPPISIDLPPYLLRKMIEIEKQEKEKQQAANNRLLLDTI (C-terminal amide) [SEQ ID NO 57] | > 100 | 12
ZGPPISIDLPKYLLRKMIEIEKQEKEKQQAANNRLLLDTI (C-terminal amide) [SEQ ID NO 58] | > 100 | 16
ZGPPISIDLPTNLLRKMIEIEKQEKEKQQAANNRLLLDTI (C-terminal amide) [SEQ ID NO 59] | > 100 | 10
